Assay results from US20130171070A1 (Genentech, published 2013).
Positions count from the first letter of the chain named. Values belong to the binder of their own block, whether it stands above or below them.

Target: T1, Human factor D (Advanced Research Inc) (human, UniProt P00746 26-253)
T1 construct: Amine-coupled directly to a CM5 chip for BIAcore; also called factor D antigen
Assay: SPR (BIAcore), human factor D amine-coupled to CM5 chip, Fab as analyte, 1:1 model, global fit
Description: Immobilization—Human factor D (Advanced Research Inc, 0.1 mg/ml) was directly immobilized onto the CM5 chip (BiaCore) using amine-coupling method. The procedure is briefly described as following: (1) Constant flow (PBS) is at 5 μl/min, (2) Injection of 35 μl EDC/NHS (1:1). (3) Injection of 35 μl of human factor D in acetate buffer, pH 4.5. (4) Block the activated group by injection of 35 μl etholamine. (5) Clean-up the surface by 5 μl 10 mM Glycine pH 1.5.
Kinetic analysis—All anti-human factor D Fabs were diluted in PBS buffer. Each sample was prepared in a series of concentrations: 12.5 nM, 25 nM. 50 nM, 75 nM, 100 nM, 125 nM, and 150 nM, with 40 μl injection pulse at high acquisition rate. Regeneration was accomplished by applying 5 μl pulse of 10 mM Glycine at pH 1.5. Kinetic parameters were obtained by fitting Fabs binding traces to 1:1 binding model under pseudo-first order kinetic using BIAvaluation version 3.0. All data are obtained by global fitting routine.

T1 sequence (P00746 26-253 limits assumed): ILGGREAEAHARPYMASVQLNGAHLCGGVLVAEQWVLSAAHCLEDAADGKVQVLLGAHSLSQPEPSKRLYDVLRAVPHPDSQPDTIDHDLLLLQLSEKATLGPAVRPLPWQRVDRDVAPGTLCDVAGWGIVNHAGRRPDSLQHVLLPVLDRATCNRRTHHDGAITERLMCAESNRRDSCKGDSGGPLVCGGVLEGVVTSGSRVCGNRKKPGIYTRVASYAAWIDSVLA

B3: humanized anti-Factor D Fab clone #56 (Fab, V domains shown)
VH: QVQLVQSGPELKKPGASVKVSCKASGYTFTNYGMNWVKQAPGQGLEWMGWINTYTGETTYADDFKGRFVFSLDTSVSTAYLQISSLKAEDTATYYCEREGGVDNWGQGTLVTVSS
VL: DIQVTQSPSSLSASVRDRVTITCITSTDIDDDMNWYQQKPGKVPKLLISGGNTLRPGVPSRFSGSGSGTDFTLTISSLQPEDVATYYCLQSDNLPYTFGQGTKLEIK
- Kd: 2.7 nM
- koff: 0.00098 s⁻¹
- kon: 360000 M⁻¹ s⁻¹

B4: humanized anti-Factor D Fab clone #416 (Fab, V domains shown)
VH: B3 VH with N31S, K38R, T93V, D103N
VL: B3 VL with R16G, G50D, N93S
- Kd: 0.33 nM
- koff: 0.00018 s⁻¹
- kon: 820000 M⁻¹ s⁻¹

The remaining binders from weak to strong by Kd, led by results:

- Kd: 2.7 nM
- koff: 0.0012 s⁻¹
- kon: 440000 M⁻¹ s⁻¹
B1: chimeric 166-32 Fab (Fab, V domains shown)
VH: QIQLVQSGPELKKPGETVKISCKASGYTFTNYGMNWVKQAPGKGLKWMGWINTYTGETTYADDFKGRFVFSLETSASTAYLEINNLKNEDMATYFCEREGGVDNWGQGTTLTVSS
VL: ETTVTQSPASLSMAIGEKVTIRCITSTDIDDDMNWYQQKPGEPPKLLISGGNTLRPGVPSRFSSSGYGADFVFTIDNMLSEDVADYYCLQSDNLPYTFGGGTRLEIK
notes: Tested as a Fab; also called chimeric Fab

- Kd: 0.33 nM
- koff: 0.00019 s⁻¹
- kon: 570000 M⁻¹ s⁻¹
B2: humanized anti-Factor D Fab clone #250 (Fab, V domains shown)
VH: B3 VH with M34L, K38R, T93V, D103N
VL: B3 VL with R16G, G50H, N93S
